Experimental findings from patent publication CN111995676A (UNIV WEIFANG MEDICAL, dated 2020) are described below.

The target in the assay is T1, 牛血清白蛋白BSA (bovine, UniProt P02769 25-607).
T1 construct: also called BSA蛋白; 牛血清蛋白
Kind of assay: phage ELISA, coated protein.

T1 sequence (P02769 25-607 limits assumed): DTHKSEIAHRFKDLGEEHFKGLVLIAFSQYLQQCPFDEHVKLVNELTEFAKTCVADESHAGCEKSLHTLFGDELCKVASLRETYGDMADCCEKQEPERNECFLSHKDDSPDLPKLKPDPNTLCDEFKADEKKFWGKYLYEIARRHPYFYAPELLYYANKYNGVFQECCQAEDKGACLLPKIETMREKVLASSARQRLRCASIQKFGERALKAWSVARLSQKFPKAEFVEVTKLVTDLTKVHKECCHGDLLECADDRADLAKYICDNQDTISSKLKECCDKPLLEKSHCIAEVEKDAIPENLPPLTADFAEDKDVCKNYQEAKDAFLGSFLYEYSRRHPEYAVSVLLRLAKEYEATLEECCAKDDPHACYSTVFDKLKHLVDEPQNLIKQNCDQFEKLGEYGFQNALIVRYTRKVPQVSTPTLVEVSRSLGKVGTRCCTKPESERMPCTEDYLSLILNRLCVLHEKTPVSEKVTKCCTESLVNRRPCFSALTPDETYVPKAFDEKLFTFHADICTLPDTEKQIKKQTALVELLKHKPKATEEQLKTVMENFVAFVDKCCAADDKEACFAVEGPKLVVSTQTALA

B1: 噬菌体展示的A4抗体 (单克隆抗体A4) (antibody, V domains shown)
VH: EVQLLESGGGLVQPGGSLRLSCAASGFTFSSYAMSWVRQAPGKGLEWVSYITNNGANTSYADSVKGRFTISRDNSKNTLYLQMNSLRAEDTAVYYCAKSYATFDYWGQGTLVTVSS
VL: DIQMTQSPSSLSASVGDRVTITCRASQSISSYLNWYQQKPGKAPKLLIYNASGLQSGVPSRFSGSGSGTDFTLTISSLQPEDFATYYCQQAAYYPTTFGQGTKVEIKR
notes: also called 噬菌体展示A4抗体; A4噬菌体
For the molecule B1, the binding result is given as “no binding (tested: 1μg/mL coated)”.

B2: 噬菌体展示的A2抗体 (单克隆抗体A2) (antibody, V domains shown)
VH: EVQLLESGGGLVQPGGSLRLSCAASGFTFSSYAMSWVRQAPGKGLEWVSGIDASGYYTSYADSVKGRFTISRDNSKNTLYLQMNSLRAEDTAVYYCAKDAYTFDYWGQGTLVTVSS
VL: DIQMTQSPSSLSASVGDRVTITCRASQSISSYLNWYQQKPGKAPKLLIYSASYLQSGVPSRFSGSGSGTDFTLTISSLQPEDFATYYCQQASADPDTFGQGTKVEIKR
On to B2, for which the binding result is “no binding (tested: 1μg/mL coated)”.

B3: 噬菌体展示的C3抗体 (单克隆抗体C3) (antibody, V domains shown)
VH: EVQLLESGGGLVQPGGSLRLSCAASGFTFSSYAMSWVRQAPGKGLEWVSSIASSGYYTDYADSVKGRFTISRDNSKNTLYLQMNSLRAEDTAVYYCAKDADSFDYWGQGTLVTVSS
VL: DIQMTQSPSSLSASVGDRVTITCRASQSISSYLNWYQQKPGKAPKLLIYAASYLQSGVPSRFSGSGSGTDFTLTISSLQPEDFATYYCQQAYSAPSTFGQGTKVEIKR
B3: the binding result is listed as “no binding (tested: 1μg/mL coated)”.
